{"source": "patent US20040248211A1", "about": "“ICAM-related protein” (priority 1992, published 2004)", "key": {"ICAM-R": {"system": "ICAM-R", "test": "Epitope mapping by domain substitution/deletion (summary)", "type": "binding, human", "description": "Fusion 81 was screened by ELISA on COS cells transiently transfected with either a domain 1 deleted ICAM-R construct [Example 15.C.1] or with an ICAM-2 construct. The transfected cells were paraformaldehyde fixed on 96-well plates, and the remainder of the assay was performed as previously described, except no Tween 20 was used. The wells that were positive for domain 1 deleted ICAM-R but negative for ICAM-2, were tested on Cos cells transiently transfected with domain 1 deleted ICAM-R or domain 3 deleted ICAM-R by ELISA.\nFor the anti-ICAM-R monoclonal antibody binding assay, COS cells transfected with constructs encoding the ICAM-R chimeric proteins or control constructs were removed from the plates by EDTA treatment and aliquoted at 2.5×10^5 cells per well in a 96-well round bottom plate. Cells were washed 3 times with ice cold washing buffer (PBS containing 1% BSA and 0.05% sodium azide). […] The samples were analyzed on a Becton-Dickinson FACScan instrument. […]\nTable 11 below is a summary of certain characteristics of ICAM-R specific monoclonal antibodies of the invention which have been specifically described in the foregoing examples. In Table 11, the abbreviation “NC” stands for “not conclusive” and the abbreviation “ND” stands for “not determined.” The antibodies marked with an asterisk in Table 11 enhanced activation at low concentrations."}, "[1]": {"system": "CD4+ CD45RO+ / CD45RA+ T cells and plastic adherent cells", "test": "SEA proliferation of memory or resting T cells with accessory cells", "type": "cell-based, human", "settings": "immobilized antibody 3 hours", "excerpt": "Because both T cells and accessory cells express high levels of ICAM-R, the inhibition of cell-cell contact dependent T cell activation during the response to SEA by ICR-1.1 could be mediated by ICR-1.1 binding to T cells, accessory cells or both. Additionally, because ICAM-R and ICAM-1 differ markedly in their expression on nonactivated T cells, it is possible that anti-ICAM-1 and anti-ICAM-R may inhibit the SEA response by targeting T cell subsets in different states of activation. Because the role of ICAM-R may differ in naive and memory cells, the ability of anti-ICAM-R antibodies to inhibit SEA induced proliferation of CD4^+ CD45RO^+ (“memory”) cells, or CD4^+ CD45RA^+ (“resting”) cells was tested. […] nonadherent PBMC (10^7 cells/ml) were incubated for 1 hour at 4° C. with a cocktail of antibodies (1μg/ml each) containing anti-CD8, anti-CD19, anti-CD11b, anti-HLA-DR (Becton Dickinson) and either anti-CD45RO (Amac) (to obtain CD45RA^+ CD4^+ cells), or anti-CD45RA (Amac) (to obtain CD45RO^+ CD4^+ cells) in coating medium. The cell suspension was washed twice with coating medium to remove unbound antibody and incubated with goat anti-mouse IgG coated magnetic beads. Cells bound to magnetic beads were then removed from the suspension using a strong magnet. […] Two hundred thousand purified memory T cells, resting T cells or plastic adherent cells were incubated on immobilized ICR-1.1, anti-ICAM-1 antibody LB-2 or anti-HLA-I antibody p10.1 (10 μg/ml) (Gerald Nepom, Virginia Mason Research Center, Seattle, Wash.) for 3 hours. The antibody treated memory or resting T cells were removed to clean wells and admixed with 2×10^4 plastic adherent cells. Antibody treated accessory cells were admixed with either untreated memory T cells or untreated resting T-cells. Each reconstituted culture was then stimulated with SEA (10 pg/ml). […]"}, "Resting PBL": {"system": "Resting PBL", "test": "CD69 and CD25 upregulation after prepulse", "type": "cell-based, human", "settings": "24 hours", "description": "Resting PBL isolated as described in Section I above were prepulsed on ICR-1.1 or negative control antibodies, washed and incubated on immobilizedanti-CD3 for 24 hours. The cells were then collected, labeled with monoclonal antibodies to the lymphocyte activation antigens CD69, CD25 and CD80 and examined by flow cytometry."}, "human basophils": {"system": "human basophils", "test": "Basophil histamine release", "type": "cell-based", "settings": "added simultaneously with anti-IgE 0.01 μg/ml", "excerpt": "Basophils were obtained at low purity by dextran sedimentation of erythrocytes in EDTA-anti-coagulated peripheral venous blood, at slightly enriched percentages from mononuclear cell layers of density gradient Percoll centrifugation preparations, and at high purity (>70%) from leukophoresis packs following clutriation and density gradient centrifugation. In the assays, polyclonal goat anti-human IgE and ICAM-R monoclonals antibodies ICR-1.1, ICR-2.1, ICR-4.2 and ICR-8.1 were used alone or in combination. The […] was used to induce histamine release which was quantitated using an automated fluorometric assay after a 45 minute incubation with secretagogue. LTC4 production was measured by radioimmunoassay as previously described in Schleimer et al., J. Immunol., 143:1310-1317 (1989), while IL-4 in cell supernatants was assayed using the IL-4 Quantikine ELSA kit (R&D Systems, Minneapolis, Minn.). Basophil adhesion to unstimulated or IL-1 treated monolayers of human umbilical vein endothelial cells was examined as previously described in Bochner et al., J. Clin. Invest., 81: 1355-1360 (1988) and Bochner et al., J. Immunol., 142: 3180-3186 (1989), in the presence or absence of ICR-2.1 monoclonal antibody. […]"}}, "data": [{"molecule": "ICR-1.1: anti-ICAM-R monoclonal antibody, IgG2a, domain 1, ATCC HB 11053 (antibody, V domains shown) VH: QVQLQQSGAELAKPGASVKMSCKASGYTFTVYWMHWVKQRPGQGLEWIGYINPNTDYTEYNQRFQDKATLTADKSSSTAYMQLSSLTSEDSAVYYCARWGGNSYGLDYWGQGTSVTVSS VL: QIVLTQSPALMSASPGEKVTMTCSASSSVSYIYWYQQKPRSSPKPWIYLTSNLASGVPARFSGSGSGASYSLTISIMEAEDAATYYCQQWKSIPLTFGAGTKLELK", "values": [{"measurement": "Reactive Domain", "setting": "ICAM-R", "value": 1}, {"measurement": "CD45RA+ cell proliferation, pretreatment of adherent cells", "setting": "[1]", "value": "modest inhibition of CD45RA^+ cell proliferation"}, {"measurement": "SEA response, pretreatment of CD45RA+ T cells (FIG. 14)", "setting": "[1]", "value": "did not affect SEA responses"}, {"measurement": "SEA proliferation, pretreatment of T cells or accessory cells (FIG. 13)", "setting": "[1]; versus p10.1 control", "value": "blocked proliferative responses to SEA"}, {"measurement": "upregulation of CD69 and CD25 in response to immobilized anti-CD3 after prepulse", "setting": "Resting PBL", "value": "do not exhibit decreased ability to upregulate the activation antigens CD69 and CD25"}]}, {"molecule": "ICR-8.1: anti-ICAM-R monoclonal antibody, IgG1, domain 1, ATCC HB 11232 (antibody, V domains shown) VH: EIQLQQTGPELVKPGASVKISCKASGYSFTDCIILWVKQSHGKGLEWIGKINPYFGTTTYNLKFKGKATLTVDKSSSTAHMQLNSLTSEDSAVYYCARKEAYPDAMDYWGQGTSVTVSS VL: DAVMTQTPLSLPVSLGDQASISCRSSQSLVHSNGDTYLHWYLQKPGQSPQLLIYKVSNRFSGVPDRFSGSGSGTDFTLKLSRVEAEDLGVYFCSQSTHVPYTFGGGTKLEIK", "values": [{"measurement": "anti-IgE-induced histamine release", "setting": "human basophils", "value": "neither ICR-8.1 nor the domain 2-specific monoclonal antibody ICR-4.2 had any significant potentiating activity"}]}]}
